# Test: yeast display, Sf9 membrane polyspecificity reagent, FACS + sequencing; frameworks hold sequencing errors
# How it was run: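 In a synthetic yeast display library (Saccharomyces cerevisiae BJ5465), nanobody expression was induced with galactose for 36–48 hours. FACS gates were set low and high (top ~1%) using anti-HA fluorescence for expression and streptavidin fluorescence for binding of the Sf9 membrane reagent. Each polyreactivity label is drawn from the gate of origin.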
row,Sequence,polyreactivity (PSR sort gate)
1,QVQLVESGGGLVQAGGSLRLSCAASGGTFQGNAMGWYRQAPGKEREFVATITRGGGSTYYADSVKGRFTISRDNAKNTVYLQMNSLKPEDTAVYYCNAKPSYYQRYNYWGQGTQVTVSS,high polyreactivity
2,QVQLVESGGGLVQAGGSLRLSCAASGRILLYNAMGWYRQAPGKERELVAAISRSGGSTYYADSVKGRFTISRDNAKNTVYLQMNSLKPEDTAVYYCAAQHGYPRYYYWGQGTQVTVSS,high polyreactivity
3,QVQHVESGGGLVQAGGSLRLSCAASGLIFVRYAMGWYRQAPGKERELVATITWSGGTTYADSVKGRFTISRDNAKNTVYLQMNSLKPEDTAVYYCAVEWPAWTDSDYPVGGHAFGYWGQGTQVTVSS,low polyreactivity
4,QVQLVESGGGLVQAGGSLRLSCAASGRTFVVYAMGWYRQAPGKERELVAGSGSTFYADSVKGRFTISPDNAKNTVYLQMNSLKPEDTAVYYCAADHPALYSLDWDTAYDYWGQGTQVTVSS,low polyreactivity
5,QVQLVESGGVLVQAGGSLPLSCAASGSTFRPNAMGWYRQAPGKERELVDGISLNGTTTYYADSVKGRFTISRDNEKNTVYIQMNSLKPVDTAVYYCSADYQFGSAAEPYVFFDPEMDYWGQGTQVTGSS,low polyreactivity
6,QVQLVESGGGLVKAGGSLRLSCAASGSIFGRYAMGWYRQAPGKERELVAAISSGGRTYADSVKGRFTISRDNAKNTVYLQMNSLNPEDTAVYYCNARYDGRNSVGPYLGYNYWGQGTQVTVSS,high polyreactivity
7,QVQLVESGGGLVQAGGSLRLSCAASGGTFSYYAMGWYRQAPGKERELVAAISGNGDTTYYADSVKGRFTSSRDNAKNTVYLQMNSLKPEATAVYYCNVFVSAGEEDEYWGQGTQVTVSS,low polyreactivity
8,QVQLVESGGGLVQAGGSLRLSCAASGRTFVPYAMGWYRQAPGKEREFVAVITWGGGSTYYADSVKGRFTISRDNAKNTVYLQMNSLKPEDTAVYYCAARNRRATGLGSRYGYWGQGTQVTVSS,high polyreactivity
9,QVQLVESGGGLVQAGGSLRLSCAASGRIFPTYAMGWYRQAPGKERELVAGITSGGRTNYADSVKGRFTISRDNAKNTVYLQMNSLKPEDTAVYYCATVSQQSRSLGIDRIYYWGQGTQVTVSS,high polyreactivity
10,QVQLVESGGGLVQAGGSLRLSCAASGSTFKRYAMGWYRQAPGKERELVAAITRGGGSTYYADSVKGRFTISRDNAKNTVYLQMNSLKPEDTAVYYCNKGYRDYFTAYLSRYYWGQGTQVTVSS,high polyreactivity
11,QFQIVESGGGLVQAGGSLRLSCAASGYTFTGNAMGWYRQATGKEREFVAGITWRTGRTYYADSVKGRFTISRDNAKNSVYVLMNSLKPEDTAVYYCNKDHQRRYFWSYDYWGQGTLVTVSS,low polyreactivity
12,KVQLVETGGGLVQAGGSLRLSCAASGSILIYNAMGWYRQAPGKERELVAGISRRGASTYYADSVKGRFTNSRDNAKKTVYLQMKSLKPEDTAVYYCAALGKYIVAWSGDFWGQGTQVTVSS,low polyreactivity
13,QVQLVESGGGLVQAGGSLRLSCAASGRIFLYYAMGWYRQAPGKERELVAAITRSGGTTYYADSVKGRFTISRDNAKNTVYLQMNSLKPEDTAVYYCAALGQYSRADYEYWGQGTQVTVSS,high polyreactivity
14,QVQLVESGGGLVQAGGSLRLSCAASGSIFSSNAMGWYRQAPGKERELVAAITRGGRTTYADSVKGRFTISRDNAKKTVYLQMNSLKPEDTAVYYCNAESYLTGWWVDYWGQGTQVTVSS,low polyreactivity
15,QVQLVESGGGLVQAGGSLRLSCAASGSTFSPYAMGWYRQAPGKERELVAAINYSSGSTYYADSVKGRFTISRDNAKNTVYFQMNSLKTEDTAVYYCAKGWYAGYPYDYWGQGTQVTVSS,low polyreactivity
16,QVQLVESGGGLVQAGGSLRLSCAASGFTFEKNAMGWYRQAPGKERELVAAISRGGSTYADSVKGRFTISRDNAKNTVYLQMNSLKPEDTAVYYCAADTVYIFSSAINGEFGYWGQGTQVTVSS,low polyreactivity
17,QVQLVESGGGLVQAGGSLRLSCAASGRTFKYNSMGWYRQAPGKERELVAAITRSGSTYYADSVKGRFTISRDNAKNTVYLQMNSLKPEDTAVYYCNARIVNYGSYYYWGQGTQVTVSS,high polyreactivity
18,QVQHVESGGGLVQAGGSLRLSGAASGSTFTYNTMGWYRQAPGKERELVAAITTYGGNTYYADSVKGRFTISRDNAKNTVYLQMNSLKPEDSAVYYCAARVIFGDFDYWGQGTQVTVSS,low polyreactivity
19,QVQLVESGGGLVQAGGSLRLSCAASGSTFLYYAKGWSRQAPGKERELVAAISGSGGSTYYADSVKGRFTISRDNAKNTVYLQMNSLKPEDTAVYYCNAVARRHGLGPYDYWGQGTQVTVSS,high polyreactivity
20,QVQLVESGGGLVQAGGSLRLSCAASGRTFYYYALGWDRQAPAKERELVAAIRWRGGRTYADSVKGRFTISRDNAKNTVYVQMNSLKPEDTAVYYCAVESFYRHASLYDYWGQGTQVTVSS,high polyreactivity
21,QVQLVESGGGLVQAGGSLRLSCAASGRIFGFYGMGWYRQAPGKERELVAAITNRVGSTYYADSVKGRFTISRDNAKNTVYLHMHSLKPEDTAVYSCARRSGWWTRMDSWGQGTQVTVSS,high polyreactivity

row,Sequence,polyreactivity (PSR sort gate)
1,QVQLVESAGGLVHAGGSLSLSCAASAILGNNAMGWYRQAPRKQRELVAAISARGGRTYYADSVKGRFTISRDNAKNTVYLQMNSLKPEDTAVYYCATLETSGVNYWGQGTQVTVSS,high polyreactivity
2,QVQLLESGGGLLQAGGSLRLSCAASGITLIGNAMGWYRQAPGKESELVAAISKSGGNTFYAVSVKGRFTISRDNAKNTVYLQMNSLKPEDTAVYYCAADGYYGYYSQYEYLYYYWGQGTQVTVSS,high polyreactivity
3,QVQLVESGGGLVQAGGSLRLSCAASGLTFTYNAMGWYRQAPGKERELVAAISKRGGSTYYADSVKGRFTISRDNAKNTVYLQMNSLKPEDTAVYYCNARTTTRSYPAFDYWGQGTQVTVSS,high polyreactivity
4,QVQLVESGGGLVQAGGSLRLSCAASGSTFSYYAMGWYRQAPGKERELVASITWNGARTYYADSVKGRFTISRDNAKNTVYLQMNSLKPEDTAVYYCADRHKYAFWTAFGNYWGQGTQVTVSS,high polyreactivity
5,QVQLVESGGGLVQAGGSLRLSSAASGSTFGYYAMRWYRQAPGKARELVAAISSAGSTNDADSVKGRFTISRDNAKNTVYLQMNSLKPEDTAVYYCAAKVRVRWHTGLVTRDYDCGQGTQVTVSS,high polyreactivity
6,QGQLVESGGGLVQAGGSLRLSCAASGLTFKGYAMGWYRQAPGKERELVAAITWDTGSTYYADSVKGRFTISRDNAKNTVYLQMNSLKPEDTAVYYCAAVGSTTTGVRRRGYWGQGTQVTVSS,high polyreactivity
7,QGQLVESGGRLVQAGVSLRLSCAASGFIFPKYAMGWYRQAPGKERELVAVITWRSGSTYYADSVKGRFTISRDNAKNTVYLQMNSLKTEETADYYCNARRSSGRYSKMGYWGQGTQVTVSS,high polyreactivity
8,QVQLVESGGGLVQAGGSLRLSCAASGSIFWTNAMGCYIQAPGKERELVAAITGGGTTYYADSVKGRFTISRDNAKNTVYLQMNSLKPEDTAVVYTVSSAQYDYWGQGTQVTVSS,low polyreactivity
9,QVQLVESGGGLVHAGGSLRLSCAASGSTFPSYAMGWYRQAPGKERELVAAINSGGGTYYADSVKGRFTISRDNAKNTVYLQRNSLKPEDTAVYYCATSRYDYTKTEGGYWGQGNQVTVSS,low polyreactivity
10,QVQLVESVGGLVQAGGSLRLSCAASGRTFWWYTMGWYRQAPGKERELVAVISSTGGRTYYADSVKGSFTISRDNAKNTVYLQMNSLKPEDTAVYYCAAEYVSAKWEYGYWGQGTQVTVSS,low polyreactivity
11,QDQIVDSRGVLVQEGGSLGLSCAASGLTIYSYAMGFSRQAPRKERELVATITNGDTTTYAETVKARFTISRDNAKNNVIFQFNILKPEDTAVYYCAQHISPGYDEYDYWGQGTQVTVSS,low polyreactivity
12,QVQLVESGGGLVQAGGSLRLSCAASGRIFVYYVMGWYRQAPGKERELVASITFRGSRTYYADSVKGRFTISRDNAKNTVYLQMNSLKTEETAGYYCNADVWASGSRGEGYWGQGSQVTVSS,low polyreactivity
13,QVQLVESGGGLVQAGGSLRLSCAASGLTFKYYAMGWYRQAPGKERELVAAITATGGLTYYADSEKGRFTISRDNAKKTVYLQMNSLKPEDTAVYYCNARQHQTYYFYKHDYWGQGTQVTVSS,high polyreactivity
14,QVQLVESGGGLVQAGGSLRLSCAASGFTFDGYAMGWDRQAPGKESELVAAISDSGDSTYYADSVKGRFTISRDNAKNTVYLQMNSLTPEDTAVYYCAAGLGYYWSDYFADDSCGQGTQVTVSS,low polyreactivity
15,QVQLVDSGGGLVQAGGSLRLSCAASGSTFVKYTMGWYRQAPGKERELVAVISRSGGSTYYADSVKGRFTISRDNAKNTVYLQMNSLKPEDTAVYYCAAHFSRDFDYWGLGTQVTVSS,high polyreactivity
16,QVQLVESGGGLVQAGGSLRLSCADSGSTFEYNDMGWYRQEPGKERELVASSTYYADSVQGRFTISRDNAKNTVYLQMNSLKPEDTAVYFCAREQGVNRNHDYWGQGTLVTVSS,low polyreactivity
17,QVQLVESGGGLVQAGGSLRLSCAASGGTFRLYAMGWYRQAPGKERELVAAISGRGGSTYYADSVKGRFTISRDNAKNTVYLQMNSLKPEDTAVYYCARYRRGKMDYWGQGTQVTVSS,high polyreactivity
18,QVQLVESGGGLVQAGGSLRLSCAASGRIFWSYAMGWYRPAPGKERELVAAIRSGGTTDYADSVKGRFTISRDNAKNTVYLQMNSLKPEDTAVYYCNREYRGAINYIYYYWGQGTQVTVSS,low polyreactivity
19,QVQLVESGGGLVQAGGSLRLTCAASGYTFGKYAMGWYREAPGKERELVATIRSGGSTNYADSLKGRFTISRDNAKNTVYLQMNSLKPEDTAVYYCNKRYRYEYGYDYWGQGTLVTVSS,high polyreactivity
20,QFQLVESGGGLVQAGGSLRLSCAASGSTFYANAMGLYRQAPGKERELVAAISYSGGSTYYADSVKGRFTISRDNAKNTVYLQMNSLKPEDTAVYYCAATNGKKTPKVYYWGQGTQVTVSS,low polyreactivity

# — the nanobody polyreactivity screen of Harvey et al. (2022)
